Measurements from patent publication US6566083B1, “Method of detecting biologically active substances” (Novo Nordisk A/S, priority 1995, dated 2003).

Columns and labels:
[1] = biological target: wild-type green fluorescent protein (GFP) derived from the jellyfish Aequorea victoria (Aequorea victoria) [GFP: P42212]; assay: cell-based or functional assay
[2] = biological target: T1, catalytic subunit of the cAMP dependent protein kinase (Bos taurus, UniProt P00517); assay: In vitro GFP phosphorylation assay; assay type: biochemical; conditions: 0.5 μg GFP, 10 casein units kinase, 0.2 mM ATP, 5 minutes at 37° C., excitation 395 nm (FIG. 3)
T1 construct: purchased Promega
Description: For in vitro phosphorylation of GFP, 0.5 μg wild-type GFP (purified as described above) in 40 mM Tris, pH 7.4, 20 mM MgOAc and 0.2 mM ATP (all from Sigma, St. Louis, Mo., USA) was incubated for 1-60 minutes at 37° C. with 0-20 casein units of the catalytic subunit of the cAMP dependent protein kinase (Promega, Madison, Wis. USA) and 0-200 μM cAMP dependent protein kinase inhibitor. Emission (excitation wavelength 395 nm or 470 nm) and excitation (emission wavelength 508 nm) spectra were acquired for all samples using the LS50B Luminescence Spectrometer and the FL data Manager software package (Perkin Elmer). The spectra were subsequently compared by using the Graph Builder software package (Perkin Elmer).
The control (w/o PKA) was incubated 5 minutes at 37° C. without the catalytic subunit of the cAMP dependent protein kinase. The excitation wavelength was 395 nm. RFI in the figure means relative fluorescence intensity.

Substance	fluorescence intensity of wild-type GFP (emission spectra, excitation 395 nm) after in vitro phosphorylation [1]	increase of fluorescence intensity when incubated with the catalytic subunit of the cAMP dependent protein kinase [2]
catalytic subunit of the cAMP dependent protein kinase (Promega) (enzyme)	2 fold	–
wild-type GFP: wild-type green fluorescent protein derived from the jellyfish Aequorea victoria, SEQ ID NO: 32, purified from E. coli	–	approximately two-fold
